Columns and labels:
Sgo1_(1–130) (human) = Sgo1_(1–130) (human) (UniProt Q5FBB7); test: ITC; Survivin or CPC (monomer concentration) injected into Sgo1 constructs, 20°C; 50 mM Hepes pH 8, 150 mM NaCl, 5% glycerol, 1 mM TCEP; standard 1:1 binding model
Sgo1_(1–155) (human) = Sgo1_(1–155) (human) (UniProt Q5FBB7); test: as above
Aurora B (endogenous) = Aurora B (endogenous) (UniProt Q96GD4); test: LacO-LacI tethering assay, immunofluorescence in U-2 OS-LacO Haspin CM cells; conditions: n = 17 (parent), red bar = mean, parent: est. 3.5, read off a plot
Borealin (endogenous) = Borealin (endogenous) (UniProt Q53HL2); test: as above; conditions: n = 22 (parent), red bar = mean, parent: est. 1.5, read off a plot
Sgo1_(1–415) (human) [1] = biological target: Sgo1_(1–415) (human) (UniProt Q5FBB7); test: mass photometry; samples cross-linked with 0.01% glutaraldehyde 5 min at 4°C, quenched with Tris; 20 nM measured in 25 mM Hepes pH 8, 250 mM NaCl, 2 mM DTT
Sgo1_(1–415 4A) (human) = Sgo1_(1–415 4A) (human) (UniProt Q5FBB7); test: ITC; 100 μM CPC injected into 10 μM Sgo1 1-415 or 1-415 4A, 20°C; 50 mM Hepes pH 8, 250 mM NaCl, 5% glycerol, 1 mM TCEP, 0.005% Tween; standard 1:1 binding model
Sgo1_(1–415) (human) [2] = biological target: Sgo1_(1–415) (human) (UniProt Q5FBB7); test: as above
Sgo1_(1–415) (human) [3] = biological target: Sgo1_(1–415) (human) (UniProt Q5FBB7); test: ITC; Survivin or CPC (monomer concentration) injected into Sgo1 constructs, 20°C; 50 mM Hepes pH 8, 150 mM NaCl, 5% glycerol, 1 mM TCEP; standard 1:1 binding model

Chain of Aurora B (endogenous) (Q96GD4 whole entry): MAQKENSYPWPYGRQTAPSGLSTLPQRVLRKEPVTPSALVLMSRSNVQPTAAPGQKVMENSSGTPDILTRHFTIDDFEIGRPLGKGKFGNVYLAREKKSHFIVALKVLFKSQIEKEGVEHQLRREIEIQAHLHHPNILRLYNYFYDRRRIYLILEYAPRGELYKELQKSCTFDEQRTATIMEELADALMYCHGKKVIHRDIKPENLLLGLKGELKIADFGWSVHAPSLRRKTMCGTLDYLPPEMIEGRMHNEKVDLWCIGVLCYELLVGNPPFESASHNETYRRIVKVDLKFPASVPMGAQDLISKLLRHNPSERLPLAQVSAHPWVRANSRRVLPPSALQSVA

Substance: Survivin full length (from UniProt O15392 1-142) (natural protein)
- Kd (Sgo1_(1–130) (human)): 255 nM
- Kd (Sgo1_(1–155) (human)): 240 nM

Substance: Sgo1_(1–527)-LacI-GFP V188A; S189A; V190A; R191A
- response (Aurora B (endogenous); n = 19 (mutant)): 1.6 a.u.

Substance: Sgo1_(1–527)-LacI-GFP Nmut; V188A; S189A; V190A; R191A
- response (Borealin (endogenous); n = 22 (mutant)): 0.28 a.u.
- response (Aurora B (endogenous); n = 22 (mutant)): 0.4 a.u.

Substance: CPC_(ISB10–280 H80A) (from UniProt Q9NQS7 1-58; O15392 1-142; Q53HL2 10-280) (complex)
- Kd (Sgo1_(1–155) (human)): 112 nM

Substance: Sgo1_(1–527)-LacI-GFP Nmut
- response (Borealin (endogenous); n = 23 (mutant)): 0.6 a.u.
- response (Aurora B (endogenous); n = 14 (mutant)): 2.3 a.u.

Substance: Survivin_(1–116) (from UniProt O15392 1-116) (domain or fragment)
- Kd (Sgo1_(1–155) (human)): 408 nM

Substance: CPC_(ISB10–280 K62A) (from UniProt Q9NQS7 1-58; O15392 1-142; Q53HL2 10-280) (complex)
- Kd (Sgo1_(1–155) (human)): 42.4 nM

Substance: CPC_(ISB10–221) (INCENP_(1–58), Survivin, Borealin_(10–221)) (from UniProt Q9NQS7 1-58; O15392 1-142; Q53HL2 10-221) (complex)
- Kd (Sgo1_(1–130) (human)): 163 nM

Substance: CPC_(ISB10–280) (INCENP_(1–58), Survivin full length, Borealin_(10–280)) (from UniProt Q9NQS7 1-58; O15392 1-142; Q53HL2 10-280) (complex)
- stoichiometry N (Sgo1_(1–415) (human) [1]): 1 ratio (2:2)
- Kd (Sgo1_(1–415 4A) (human)): 112 nM
- Kd (Sgo1_(1–415) (human) [2]): 151 nM
- Kd (Sgo1_(1–130) (human)): 57.4 nM
- Kd (Sgo1_(1–415) (human) [3]): 52.8 nM
- dH (Sgo1_(1–415) (human) [3]): -6.58 kcal/mol
- stoichiometry N (Sgo1_(1–415) (human) [3]): 1
- Kd (Sgo1_(1–155) (human)): 71.2 nM

Substance: Sgo1_(1–415) (from UniProt Q5FBB7 1-415) (domain or fragment)
- stoichiometry N (Sgo1_(1–415) (human) [1]): 2

Reference: PMC9253516
